Earlier results as cited in PMC4097889.

What was measured:
RXRα LBD (Homo sapiens) [1] = target: RXRα LBD (Homo sapiens) (UniProt P19793); assay: ITC
RXRα LBD (Homo sapiens) [2] = target: RXRα LBD (Homo sapiens) (UniProt P19793); assay: circular dichroism

Sequence of UniProt P19793 (P19793 227-458): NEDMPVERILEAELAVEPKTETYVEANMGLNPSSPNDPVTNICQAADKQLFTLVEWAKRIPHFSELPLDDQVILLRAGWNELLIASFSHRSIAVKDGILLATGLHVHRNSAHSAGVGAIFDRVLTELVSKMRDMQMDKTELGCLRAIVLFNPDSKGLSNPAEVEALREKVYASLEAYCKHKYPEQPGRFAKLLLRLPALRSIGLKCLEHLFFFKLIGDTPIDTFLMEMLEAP

- Kd (RXRα LBD (Homo sapiens) [1]): 0.6 µM
- Kd (RXRα LBD (Homo sapiens) [2]): 0.9 µM
Substance: GRIP-1 peptide (from UniProt Q15596)
